According to patent publication US20260027220A1, “EPHA2 BCL-XL INHIBITOR ANTIBODY-DRUG CONJUGATES AND METHODS OF USE THEREOF” (Novartis AG, priority 2022, published 2026):
Changes are numbered by the printed parent chain. Names may count otherwise. “And” between values parts separate entries of the source, which are not always exact repeats. Equal values may be shown once.

Experiments:
[1] = target: T1, human EphA2 expressed on HKB-11 cells (human, UniProt P29317 24-976); assay: FACS titration on HKB-11 cells transduced to overexpress EphA2 (200 to 0.003 nM antibody, Alexa Fluor 647 anti-human IgG, MFI of live cells)
T1 construct: The HKB-11 cells were transduced to overexpress EphA2; also called HKB-11 EphA2+ cell line
Method: (§1) The binding affinity of EphA2 antibodies on cells was evaluated using flow cytometry (FACS). […] Cell lines were cultured in media that is optimal for their growth at 5% CO₂, 37° C. in a tissue culture incubator. Cell viability and cell density were determined using a cell counter (Vi-Cell XR Cell Viability Analyzer, Beckman Coulter). […] All subsequent steps were performed on ice and in ice cold FACS buffer to prevent internalization of the receptor. Cells were resuspended in 100 μL of FACS buffer containing an 11-point serial dilution of test antibodies at final concentrations of 200 nM-0.003 nM. Cells were incubated at 4° C. for 45 minutes. Following incubation, cells were washed three times in ice cold PBS at 1000 rpm for 5 minutes with 200 μL FACS buffer. […] Cells were incubated in the dark at 4° C. for 45 minutes. Following incubation, cells were washed three times in ice cold PBS at 1000 rpm for 5 minutes with 200 μL FACS buffer. Cells were then resuspended in 100 μL FACS buffer containing DAPI (ThermoFisher, #D1306) staining followed by readout via flow cytometry (MACSQuant® Analyzer 10). Data was analyzed using FlowJo v10.8.1 to obtain MFI (Mean Fluorescence Intensity) on live cells. EC₅₀ values were calculated using the GraphPad Prism 9 software. There were three rounds of experiments performed to evaluate three groupings of EphA2 antibodies. […]

human EphA2 ectodomain [2] = target: T2, human EphA2 ectodomain (human, UniProt P29317 24-537); assay: SPR (Biacore 8k), Fab-capture, 37C, 1:1 model;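 note: Anti-EphA2 IgG captured via immobilized anti-Fab, soluble EphA2 ectodomain as analyte at six twofold dilutions from 50 nM, HBS-EP+ pH 7.6 running buffer, double reference subtraction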
T2 construct: Soluble ectodomain used as the SPR analyte
Method: (§2) A human Fab capture method was utilized in order to determine kinetics for the antibodies. […] Each channel has two flow cells. The reference flow cell contained only immobilized anti-Fab, whereas the reaction flow cell captured anti-EphA2 IgG through anti-Fab. HBS-EP+ Buffer, pH 7.6 was used as the running buffer. The soluble human, mouse and cyno EphA2 ectodomain flowed over both flow cells on 8 channels. The EphA2 ectodomain concentration started at 50 nM and was serially diluted at one part to one part (1:1) in the running buffer for six concentrations. The analysis chamber was kept at 37° C. Regeneration was performed at the end of each sample washing with the solution of 10 mM Glycine-HCl, pH 2.1 provided in the kit.
(§3) The data were analysed using the Biacore Insight Evaluation Software. Double reference subtraction was completed to generate the final data. The raw data was fitted to a 1:1 binding model, with parameter(s) Rₘₐₓ set to local.

mouse EphA2 ectodomain [3] = target: T3, mouse EphA2 ectodomain (mouse, UniProt Q03145 26-538); assay: SPR (Biacore 8k), Fab-capture, 37C, 1:1 model;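 note: Anti-EphA2 IgG captured via immobilized anti-Fab, soluble EphA2 ectodomain as analyte at six twofold dilutions from 50 nM, HBS-EP+ pH 7.6 running buffer, double reference subtraction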
T3 construct: extracellular domain
Method: as §2, §3

cyno EphA2 ectodomain [4] = target: T4, cyno EphA2 ectodomain (cyno, UniProt Q1KL86 25-537); assay: SPR (Biacore 8k), Fab-capture, 37C, 1:1 model;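 note: Anti-EphA2 IgG captured via immobilized anti-Fab, soluble EphA2 ectodomain as analyte at six twofold dilutions from 50 nM, HBS-EP+ pH 7.6 running buffer, double reference subtraction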
T4 construct: extracellular domain
Method: as §2, §3

[5] = target: T1, human EphA2 expressed on HKB-11 cells; assay: KinExA avid equilibrium KD on cells, average of replicates
Method: (§4) Free antibody in equilibrium titration reactions were measured by KinExA using a KinExA 3200, Autosampler (Sapidyne). Data were analyzed using KinExA Pro 4-5-X (Sapidyne).
(§5) Anti-EphA2 antibody was diluted in PBS with 10% HI-FBS and 0.04% sodium azide to 2× the final concentration of binding sites needed for equilibrium titration. […] Cells and antibody were combined 1:1 in an eppendorf tube and incubated overnight, 4° C., rotating. Buffer and antibody alone samples were included. Cells were pelleted and supernatants were transferred to a 2 ml 96-well deep well plate covered with pierceable film.
Data were analyzed by n-Curve Analysis.

[6] = target: T1, human EphA2 expressed on HKB-11 cells; assay: KinExA apparent (avid) equilibrium KD on human EphA2 HKB-11 cells
Method: as §4, §5
Data were analyzed by n-Curve Analysis.

[7] = target: T1, human EphA2 expressed on HKB-11 cells; assay: flow cytometry on HKB-11 cells overexpressing EphA2; lot DE-54-AX20
Method: as §1

[8] = target: T1, human EphA2 expressed on HKB-11 cells; assay: flow cytometry on HKB-11 cells overexpressing EphA2; lot VE-39-AK34
Method: as §1

[9] = target: T1, human EphA2 expressed on HKB-11 cells; assay: flow cytometry on HKB-11 cells overexpressing EphA2; lot HE-07-PV32
Method: as §1

[10] = target: T1, human EphA2 expressed on HKB-11 cells; assay: flow cytometry on HKB-11 cells overexpressing EphA2; lot HA-13-AF39
Method: as §1

[11] = target: T1, human EphA2 expressed on HKB-11 cells; assay: flow cytometry on HKB-11 cells overexpressing EphA2; lot PE-07-PN32
Method: as §1

human EphA2 ectodomain [12] = target: T2, human EphA2 ectodomain; assay: SPR (Biacore 8k), Fab-capture, 37C, 1:1 model; *low binding signal;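 for koff: Anti-EphA2 IgG captured via immobilized anti-Fab, soluble EphA2 ectodomain as analyte at six twofold dilutions from 50 nM, HBS-EP+ pH 7.6 running buffer, double reference subtraction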
Method: as §2, §3

mouse EphA2 ectodomain [13] = target: T3, mouse EphA2 ectodomain; assay: as above
Method: as §2, §3

cyno EphA2 ectodomain [14] = target: T4, cyno EphA2 ectodomain; assay: as above
Method: as §2, §3

[15] = target: T1, human EphA2 expressed on HKB-11 cells; assay: flow cytometry on HKB-11 cells overexpressing EphA2; lot DC-69-ID09
Method: as §1

[16] = target: T1, human EphA2 expressed on HKB-11 cells; assay: flow cytometry on HKB-11 cells overexpressing EphA2; lot HD-58-MP05
Method: as §1

[17] = target: T1, human EphA2 expressed on HKB-11 cells; assay: flow cytometry on HKB-11 cells overexpressing EphA2; lot DA-62-QP06
Method: as §1

[18] = target: T1, human EphA2 expressed on HKB-11 cells; assay: flow cytometry on HKB-11 cells overexpressing EphA2; lot PA-62-QD06
Method: as §1

T3 sequence (Q03145 26-538): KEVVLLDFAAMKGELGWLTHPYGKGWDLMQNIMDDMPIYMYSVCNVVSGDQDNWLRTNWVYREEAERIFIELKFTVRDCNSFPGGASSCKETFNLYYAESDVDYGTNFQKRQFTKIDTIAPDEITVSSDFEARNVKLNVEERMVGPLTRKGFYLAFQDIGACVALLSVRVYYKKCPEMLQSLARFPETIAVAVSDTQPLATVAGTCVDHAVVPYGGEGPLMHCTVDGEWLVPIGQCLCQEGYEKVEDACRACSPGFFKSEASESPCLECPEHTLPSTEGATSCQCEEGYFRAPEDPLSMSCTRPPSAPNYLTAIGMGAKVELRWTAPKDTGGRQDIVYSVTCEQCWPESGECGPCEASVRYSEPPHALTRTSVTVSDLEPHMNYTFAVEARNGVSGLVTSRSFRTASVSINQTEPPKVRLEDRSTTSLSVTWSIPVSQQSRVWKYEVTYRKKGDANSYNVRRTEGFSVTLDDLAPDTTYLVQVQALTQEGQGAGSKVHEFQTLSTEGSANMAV
T4 sequence (Q1KL86 25-537): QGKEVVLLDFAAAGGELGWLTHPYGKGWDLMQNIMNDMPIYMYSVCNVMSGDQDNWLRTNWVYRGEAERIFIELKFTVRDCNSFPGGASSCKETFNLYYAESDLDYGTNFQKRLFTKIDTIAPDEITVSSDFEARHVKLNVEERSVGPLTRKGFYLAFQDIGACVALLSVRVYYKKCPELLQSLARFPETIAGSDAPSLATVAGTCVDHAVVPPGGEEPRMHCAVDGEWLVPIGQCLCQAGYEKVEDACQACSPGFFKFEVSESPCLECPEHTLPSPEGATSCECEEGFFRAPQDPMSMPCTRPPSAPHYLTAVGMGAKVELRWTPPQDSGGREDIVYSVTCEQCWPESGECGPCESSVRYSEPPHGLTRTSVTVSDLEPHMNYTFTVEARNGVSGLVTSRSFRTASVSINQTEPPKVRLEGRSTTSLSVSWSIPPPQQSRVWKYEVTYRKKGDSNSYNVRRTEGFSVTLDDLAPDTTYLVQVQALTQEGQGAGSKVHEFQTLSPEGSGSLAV
T2 sequence (P29317 24-537 limits assumed): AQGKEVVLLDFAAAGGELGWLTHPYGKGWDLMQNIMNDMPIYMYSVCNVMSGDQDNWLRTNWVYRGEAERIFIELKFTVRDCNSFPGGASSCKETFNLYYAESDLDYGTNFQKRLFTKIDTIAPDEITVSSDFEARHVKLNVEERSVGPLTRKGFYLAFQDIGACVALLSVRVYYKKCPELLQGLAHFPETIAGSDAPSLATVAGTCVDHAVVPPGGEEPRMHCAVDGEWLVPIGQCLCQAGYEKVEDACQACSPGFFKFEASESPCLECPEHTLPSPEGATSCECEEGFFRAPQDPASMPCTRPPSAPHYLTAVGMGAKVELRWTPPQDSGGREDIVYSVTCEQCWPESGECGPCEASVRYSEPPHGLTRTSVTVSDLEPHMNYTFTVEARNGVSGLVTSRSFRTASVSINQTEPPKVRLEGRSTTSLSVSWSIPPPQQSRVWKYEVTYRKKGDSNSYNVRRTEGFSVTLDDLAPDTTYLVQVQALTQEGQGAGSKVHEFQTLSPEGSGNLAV
T1 sequence (P29317 24-976 limits assumed): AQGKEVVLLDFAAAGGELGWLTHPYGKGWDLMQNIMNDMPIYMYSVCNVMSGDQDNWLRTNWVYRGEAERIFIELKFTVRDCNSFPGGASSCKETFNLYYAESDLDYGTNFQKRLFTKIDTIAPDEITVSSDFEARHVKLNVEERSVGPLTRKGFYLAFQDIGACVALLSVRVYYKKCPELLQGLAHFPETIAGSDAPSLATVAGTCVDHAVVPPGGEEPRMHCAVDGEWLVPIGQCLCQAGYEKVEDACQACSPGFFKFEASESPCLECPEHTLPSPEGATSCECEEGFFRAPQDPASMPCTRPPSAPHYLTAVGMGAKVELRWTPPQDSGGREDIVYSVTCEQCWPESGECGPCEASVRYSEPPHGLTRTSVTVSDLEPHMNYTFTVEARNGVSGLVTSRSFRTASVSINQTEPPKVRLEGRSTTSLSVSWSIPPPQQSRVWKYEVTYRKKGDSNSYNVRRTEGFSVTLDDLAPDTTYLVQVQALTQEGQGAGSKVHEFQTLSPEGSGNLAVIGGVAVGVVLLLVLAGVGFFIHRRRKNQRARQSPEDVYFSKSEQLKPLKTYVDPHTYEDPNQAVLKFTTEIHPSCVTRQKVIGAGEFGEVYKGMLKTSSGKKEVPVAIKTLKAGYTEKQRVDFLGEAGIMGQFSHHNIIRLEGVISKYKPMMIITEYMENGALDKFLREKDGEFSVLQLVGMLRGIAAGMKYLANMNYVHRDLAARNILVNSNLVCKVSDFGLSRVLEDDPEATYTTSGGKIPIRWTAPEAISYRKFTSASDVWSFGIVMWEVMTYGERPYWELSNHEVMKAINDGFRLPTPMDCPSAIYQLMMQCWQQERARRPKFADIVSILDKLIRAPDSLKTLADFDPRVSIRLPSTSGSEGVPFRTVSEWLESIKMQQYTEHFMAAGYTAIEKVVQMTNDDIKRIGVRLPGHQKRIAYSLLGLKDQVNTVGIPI

B1: 3207 (antibody, V domains shown)
VH: QVQLQQSGPGLVKPSQTLSLTCAISGDSVSSNSAAWSWIRQSPGRGLEWLGRIYYRSKWYNDYAVSVKSRITINPDTSKNQFSLQLNSVTPEDTAVYYCARLDHRYHEDTVYPGMDVWGQGTLVTVSS
VL: DIELTQPPSVSVAPGQTARISCSGDNLPAYTVTWYQQKPGQAPVLVIYDDSDRPSGIPERFSGSNSGNTATLTISGTQAEDEADYYCASWDPSSGVVFGGGTKLTVL
notes: the legend prints only '3207'; also called IgG (3207); IgG anti-chicken lysozyme antibody
Question: Does B1 bind [1]?
Answer: no binding (tested: 200 nM)

B2: anti-EphA2 E152C S375C 1C1 (LC N92Q) hIgG1 (WT Heavy Chain) (antibody, V domains shown)
VH: EVQLLESGGGLVQPGGSLRLSCAASGFTFSHYMMAWVRQAPGKGLEWVSRIGPSGGPTHYADSVKGRFTISRDNSKNTLYLQMNSLRAEDTAVYYCAGYDSGYDYVAVAGPAEYFQHWGQGTLVTVSS
VL: DIQMTQSPSSLSASVGDRVTITCRASQSISTWLAWYQQKPGKAPKLLIYKASNLHTGVPSRFSGSGSGTEFSLTISGLQPDDFATYYCQQYQSYSRTFGQGTKVEIKR
notes: also called 1C1 N92Q IgG; DE-54-AX20
Question: How did the Kd (human EphA2 ectodomain [2]) turn out when B2 was run?
Answer: 196 nM

Question: What about the koff (human EphA2 ectodomain [2]) of the same binder?
Answer: 0.0531 s⁻¹

Question: What about the kon (human EphA2 ectodomain [2]) of the same binder?
Answer: 271000 M⁻¹ s⁻¹

Question: What about the Kd (mouse EphA2 ectodomain [3]) of the same binder?
Answer: 385 nM

Question: What about the koff (mouse EphA2 ectodomain [3]) of the same binder?
Answer: 0.0661 s⁻¹

Question: And the kon (mouse EphA2 ectodomain [3])?
Answer: 172000 M⁻¹ s⁻¹

Question: What about the Kd (cyno EphA2 ectodomain [4]) of the same binder?
Answer: 230 nM

Question: And the koff (cyno EphA2 ectodomain [4])?
Answer: 0.0719 s⁻¹

Question: And the kon (cyno EphA2 ectodomain [4])?
Answer: 313000 M⁻¹ s⁻¹

Question: What about the Kd [5] of the same binder?
Answer: 0.114 nM

Question: What about the Kd [6] of the same binder?
Answer: 0.089 nM and 0.138 nM

Question: What about the EC50 [7] of the same binder?
Answer: 3.83 nM

Question: What about the EC50 [8] of the same binder?
Answer: 1.95 nM

B3: anti-EphA2_1C1_DAR4_LC_N92Q_G77S (antibody, human IgG1, kappa, V domains shown)
VH: B2 VH
VL: B2 VL with G77S
notes: also called HE-07-PV32
Question: For B3, which EC50 [9] is on record?
Answer: 2.59 nM

B4: anti-EphA2_1C1_DAR4_LC_N92Q_S72T (antibody, human IgG1, kappa, V domains shown)
VH: B2 VH
VL: B2 VL with S72T
notes: also called HA-13-AF39
Question: With B4 as the binder, how does the EC50 [10] read?
Answer: 1.8 nM

B5: anti-EphA2_1C1_DAR4_LC_N92Q_S72T_G77S (antibody, human IgG1, kappa, V domains shown)
VH: B2 VH
VL: B2 VL with S72T, G77S
Question: For B5, which Kd [5] is on record?
Answer: 0.129 nM

Question: What about the Kd [6] of the same binder?
Answer: 0.124 nM and 0.134 nM

Question: And the EC50 [11]?
Answer: 1.81 nM

B6: anti-EphA2 E152C S375C 1C1 (LC S10T_S72T_G77S) hIgG1 (WT Heavy Chain) (antibody, V domains shown)
VH: B2 VH
VL: B2 VL with S10T, S72T, G77S, Q92N
notes: also called 3x germ
Question: B6 was tested. Which koff (human EphA2 ectodomain [2]) did it give?
Answer: 0.0996 s⁻¹

Question: What about the kon (human EphA2 ectodomain [2]) of the same binder?
Answer: 250000 M⁻¹ s⁻¹

Question: What about the koff (mouse EphA2 ectodomain [3]) of the same binder?
Answer: 0.0635 s⁻¹

Question: What about the kon (mouse EphA2 ectodomain [3]) of the same binder?
Answer: 193000 M⁻¹ s⁻¹

Question: And the koff (cyno EphA2 ectodomain [4])?
Answer: 0.121 s⁻¹

Question: And the kon (cyno EphA2 ectodomain [4])?
Answer: 886000 M⁻¹ s⁻¹

Question: What about the Kd (human EphA2 ectodomain [12]) of the same binder?
Answer: 398 nM

Question: And the Kd (mouse EphA2 ectodomain [13])?
Answer: 328 nM

Question: What about the Kd (cyno EphA2 ectodomain [14]) of the same binder?
Answer: 137 nM

Question: And the EC50 [15]?
Answer: 23.9 nM

B7: anti-EphA2 E152C S375C 1C1 (LC S93A) hIgG1 (WT Heavy Chain) (antibody, V domains shown)
VH: B2 VH
VL: B2 VL with Q92N, S93A
notes: also called HD-58-MP05
Question: What does the source list for B7?
Answer: Kd (human EphA2 ectodomain [2]): 265 nM; koff (human EphA2 ectodomain [2]): 0.131 s⁻¹; kon (human EphA2 ectodomain [2]): 493000 M⁻¹ s⁻¹; Kd (mouse EphA2 ectodomain [3]): 343 nM; koff (mouse EphA2 ectodomain [3]): 0.0625 s⁻¹; kon (mouse EphA2 ectodomain [3]): 182000 M⁻¹ s⁻¹; Kd (cyno EphA2 ectodomain [4]): 259 nM; koff (cyno EphA2 ectodomain [4]): 0.181 s⁻¹; kon (cyno EphA2 ectodomain [4]): 697000 M⁻¹ s⁻¹; EC50 [16]: 3.44 nM

B8: anti-EphA2 E152C S375C 1C1 (LC S93Q) hIgG1 (WT Heavy Chain) (antibody, V domains shown)
VH: B2 VH
VL: B2 VL with Q92N, S93Q
notes: also called DA-62-QP06
Question: With B8 as the binder, how does the Kd (human EphA2 ectodomain [2]) read?
Answer: 237 nM

Question: What about the koff (human EphA2 ectodomain [2]) of the same binder?
Answer: 0.0635 s⁻¹

Question: What about the kon (human EphA2 ectodomain [2]) of the same binder?
Answer: 268000 M⁻¹ s⁻¹

Question: What about the Kd (mouse EphA2 ectodomain [3]) of the same binder?
Answer: 335 nM

Question: What about the koff (mouse EphA2 ectodomain [3]) of the same binder?
Answer: 0.0552 s⁻¹

Question: And the kon (mouse EphA2 ectodomain [3])?
Answer: 165000 M⁻¹ s⁻¹

Question: And the Kd (cyno EphA2 ectodomain [4])?
Answer: 272 nM

Question: What about the koff (cyno EphA2 ectodomain [4]) of the same binder?
Answer: 0.338 s⁻¹

Question: What about the kon (cyno EphA2 ectodomain [4]) of the same binder?
Answer: 1.24e+06 M⁻¹ s⁻¹

Question: And the EC50 [17]?
Answer: 2.13 nM

B9: anti-EphA2 E152C S375C 1C1 (LC S93V) hIgG1 (WT Heavy Chain) (antibody, V domains shown)
VH: B2 VH
VL: B2 VL with Q92N, S93V
notes: also called PA-62-QD06
Question: What does the source list for B9?
Answer: koff (human EphA2 ectodomain [2]): 0.0792 s⁻¹; kon (human EphA2 ectodomain [2]): 296000 M⁻¹ s⁻¹; Kd (mouse EphA2 ectodomain [3]): 286 nM; koff (mouse EphA2 ectodomain [3]): 0.0508 s⁻¹; kon (mouse EphA2 ectodomain [3]): 178000 M⁻¹ s⁻¹; koff (cyno EphA2 ectodomain [4]): 0.105 s⁻¹; kon (cyno EphA2 ectodomain [4]): 428000 M⁻¹ s⁻¹; Kd (human EphA2 ectodomain [12]): 268 nM; Kd (cyno EphA2 ectodomain [14]): 246 nM; EC50 [18]: 20.2 nM
